For orientation: Kd means the constant that tells how readily two partners part at equilibrium. Low readings indicate a tighter complex, high ones a looser complex. As usually defined, the koff is a measure of how fast the partners let go of each other. Read a high koff as a short-lived complex. Broadly, the kon is the rate constant with which the complex forms. Lower therefore signals slower complex formation. The EC50 is the concentration at which the effect is half-maximal. A low value points to an effect from little substance.

Where only a bound is given, the exact number is not on record here.

Data on 15 molecules can be found in US20170258948A1 (Bristol-Myers Squibb, published 2017).

For assay [1], the target named is T1, human PD-L1 (Programmed Death Ligand-1), protein used in Biacore and ELISA (human, UniProt Q9NZQ7 19-239).
T1 construct: also called hPD-L1; CD274
T1 sequence (Q9NZQ7 19-239 limits assumed): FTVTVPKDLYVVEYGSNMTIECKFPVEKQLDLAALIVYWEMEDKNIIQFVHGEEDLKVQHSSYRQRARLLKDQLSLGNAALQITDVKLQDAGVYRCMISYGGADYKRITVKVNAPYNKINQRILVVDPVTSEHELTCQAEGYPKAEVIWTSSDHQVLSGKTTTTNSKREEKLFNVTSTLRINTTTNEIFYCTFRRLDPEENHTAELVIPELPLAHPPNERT
Put plainly: summary sentence on the binding data (Biacore); limit tied to A02 by Table 2. On the technique in general: In SPR one partner is held on a chip, and binding of the other changes the refractive index at the surface.

Assay [2] concerns the target T1, human PD-L1 (Programmed Death …). Put plainly: SPR (Biacore), human PD-L1.
Assay [3] deals with T2, human PD-L1 expressed on cells (hPD-L1-positive L2987 human lung carcinoma cells); L2987 xenograft and human … (human, UniProt Q9NZQ7 19-290).
T2 construct: whole, on cells; also called hPD-L1(+) L2987; PD-L1 positive cells L2987
T2 sequence (Q9NZQ7 19-290): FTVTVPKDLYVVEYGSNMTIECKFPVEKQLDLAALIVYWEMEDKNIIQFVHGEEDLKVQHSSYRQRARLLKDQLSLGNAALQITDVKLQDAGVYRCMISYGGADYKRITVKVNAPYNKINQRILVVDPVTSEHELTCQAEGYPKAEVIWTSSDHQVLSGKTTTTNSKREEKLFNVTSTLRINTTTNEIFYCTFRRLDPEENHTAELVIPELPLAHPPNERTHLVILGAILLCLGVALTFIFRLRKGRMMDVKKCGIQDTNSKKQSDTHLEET
Put plainly: cell binding to human PD-L1 positive L2987 cells; Cys-capped form; Cys-capped form.

Assay [4] has as its target T1, human PD-L1 (Programmed Death …). Nature of the assay: method not stated (Table 1, binding properties of anti-PD-L1 Adnectins).
The next assay concerns the target T3, cyno PD-L1 (cyno (cynomolgus monkey), UniProt G7PSE7 19-239).
T3 construct: also called cynomolgus PD-L1
Put plainly: SPR (Biacore), cyno PD-L1.

Assay [5] deals with T1, human PD-L1 (Programmed Death …). Nature of the assay: ELISA, inhibition of binding of human CD80 (B7-1) to human PD-L1. (In general: In an ELISA, binding on a coated surface is turned into a signal by an enzyme label.)
The target in assay [6] is T2, human PD-L1 expressed on cells …. Nature of the assay: cell-based or functional assay.
The target in assay [7] is T1, human PD-L1 (Programmed Death …). Put plainly: summary sentence on the binding data (Biacore); limit tied to E01 by Table 2.
The target of assay [8] is T2, human PD-L1 expressed on cells …. Put plainly: radiotracer binding to cells on ice, gamma counting. How it is done: After the incubation period, cell samples were centrifuged at 200×g and the supernatant was discarded. Cell pellets were resuspended in 1 mL PBS+0.5% BSA and the wash procedure repeated for a total of 3 washes. Following the final wash, cells were again centrifuged at 200×g and the supernatant was discarded. The radioactivity of the remaining cell pellets was then measured by gamma counter.

T3 sequence (G7PSE7 entry or part of it): as the sequence (Q9NZQ7 19-239 limits assumed) above, with A33T, A34S, S62N, R68Q, Q82R, F173L, T185A, T192I, H215L counted along it

B1: ADX_5322_A02 (designed binder)
chain: MGVSDVPRDLEVVAATPTSLLISWSYDGPIDRYYRITYGETGGNSPVQEFTVPPDQKTATISGLKPGVDYTITVYAVRLEEAHYNREFPISINYRTPCHHHHHH
For the molecule B1, the Kd in assay [1] was < 1000 pM. Moreover, in assay [2], the affinity, expressed as Kd, was 228 pM; the koff is 0.00057 s⁻¹; the kon came to 2.5e+06 M⁻¹ s⁻¹.

B2: ADX_5322_A02 (Cys-Capped) (designed binder)
chain: MGVSDVPRDLEVVAATPTSLLISWSYDGPIDRYYRITYGETGGNSPVQEFTVPPDQKTATISGLKPGVDYTITVYAVRLEEAHYNREFPISINYRTPCHHHHHH
modifications: Cys-Capped (so in the source); capping group not stated
In assay [3], B2 returned an EC50 of 430 pM.

B3: ATI-1421E04 (designed binder)
chain: MGVSDVPRDLEVVAATPTSLLISWSYNGPIEYRITYGETGGNSPVQEFTVPDQQATISGLKPGVDYTITVYALEEAHYSRQSISINYRTEIDKPSQHHHHHH
notes: 10Fn3 Adnectin; also called AT1-1421E04
In the case of B3, the Kd in assay [4] turned out to be 5600 pM.

B4: ATI-967 (designed binder)
chain: MGVSDVPRDLEVVAATPTSLLISWQGQLSPSFYYRITYGETGGNSPVQEFTVPVASGTATISGLKPGVDYTITVYAVTSHGIYFYAPISINYRTEIDKPSQHHHHHH
notes: 10Fn3 Adnectin; also called parent of ADX_5417_E01
In [2], B4 yielded a Kd of 32 pM, a koff of 6.7e-05 s⁻¹ and a kon of 2.1e+06 M⁻¹ s⁻¹. In the assay with cyno PD-L1, the dissociation constant (Kd) is 60 pM.

B5: ATI-964 (designed binder)
chain: MGVSDVPRDLEVVAATPTSLLISWSYDGSIERYYRITYGETGGNSPVQEFTVPPDQKTATISGLKPGVDYTITVYAVRLEEAHYYRESPISINYRTEIDKPSQHHHHHH
notes: 10Fn3 Adnectin; also called parent of ADX_5322_A02
Regarding B5, in assay [2], the affinity, expressed as Kd, was 210 pM; the koff was 7.7e-05 s⁻¹; the kon is 360000 M⁻¹ s⁻¹. Further, in assay [5], the EC50 came to 41 pM. Binding with cyno PD-L1 was put at a Kd of 140 pM.

B6: ^64Cu-A02-NODAGA (designed binder)
chain: GVSDVPRDLEVVAATPTSLLISWSYDGPIDRYYRITYGETGGNSPVQEFTVPPDQKTATISGLKPGVDYTITVYAVRLEEAHYNREFPISINYRTPC
modifications: C-terminal cysteine (of the added PC) linked to maleimide-NODAGA chelating ^64Cu
As for B6, the “PET radiotracer uptake in hPD-L1(+) L2987 xenografts relative to hPD-L1(-) HT-29 xenografts in mice (final 10 minutes of the 2 h time-activity curve)” value in [6] amounted to 3.05 fold.

B7: ^18F-A02 Adnectin ([^18F]-A02-4PEG-DBCO-FPPEGA) (designed binder)
chain: GVSDVPRDLEVVAATPTSLLISWSYDGPIDRYYRITYGETGGNSPVQEFTVPPDQKTATISGLKPGVDYTITVYAVRLEEAHYNREFPISINYRTPC
modifications: C-terminal cysteine linked to Maleamide-DBCO-FFP(18F) (maleimide-PEG4-DBCO clicked with [^18F]-FPPEGA)
B7: the “maximum radiotracer uptake ratio in hPD-L1(+) L2987 xenografts vs. hPD-L1(-) HT-29 xenografts (PET, mice)” value in assay [6] was determined as 3.53 ratio.

B8: ATI-968 (designed binder)
chain: MGVSDVPRDLEVVAATPTSLLISWIAPFYNVIYYRITYGETGGNSPVQEFTVPGTGYTATISGLKPGVDYTITVYAVTDGASIASYAFPISINYRTEIDKPSQHHHHHH
notes: 10Fn3 Adnectin; also called ADX_1760_C01
In [2], B8 displayed a Kd of 160 pM, a koff of 0.00012 s⁻¹ and an on-rate constant (kon) of 750000 M⁻¹ s⁻¹. This molecule came in with an EC50 in assay [5] of 56 pM. The same molecule came in with a Kd with cyno PD-L1 of 110 pM.

B9: ATI-965 (designed binder)
chain: MGVSDVPRDLEVVAATPTSLLISWTAYDSVDKYYRITYGETGGNSPVQEFTVGPRHHTATISGLKPGVDYTITVYAVYHTEPGYHAHMPISINYRTEIDKPSQHHHHHH
notes: 10Fn3 Adnectin
In [2], B9 displayed a Kd of 710 pM, a koff of 0.00033 s⁻¹ and a kon of 460000 M⁻¹ s⁻¹. In assay [5], this molecule yielded an EC50 of 210 pM. Further, in the assay with cyno PD-L1, binding was characterised by a dissociation constant (Kd) of 800 pM.

B10: ATI-1420D05 (designed binder)
chain: MGVSDVPRDLEVVAATPTSLLISWTAYYSTIKYRITYGETGGNSPVQEFTVGPKHHATISGLKPGVDYTITVYAYNTKPGYHAHQISINYRTEIDKPSQHHHHHH
notes: 10Fn3 Adnectin
As for B10, in assay [4], the Kd is 9500 pM.

B11: cold (unlabeled) A02 Adnectin (designed binder)
chain: EVVAATPTSLLISWSYDGPIDRYYRITYGETGGNSPVQEFTVPPDQKTATISGLKPGVDYTITVYAVRLEEAHYNREFPISINYRT
For the molecule B11, in assay [6], the “PET uptake of ^64Cu-A02 in hPD-L1(+) L2987 relative to hPD-L1(-) HT-29 xenografts when co-injected with 3 mg/kg unlabeled A02 Adnectin” value came out at 1.04 fold.

B12: ADX_5417_E01 (designed binder)
chain: MGVSDVPRDLEVVAATPTSLLISWRAQLSPSFYYRITYGETGGNSPVQEFTVPNDVMTATISGLKPGVDYTITVYAVTTHGVYFYSPISINYRTPCHHHHHH
Take B12: in assay [2], the Kd worked out at 13 pM, the koff worked out at 0.00026 s⁻¹ and the kon worked out at 2e+07 M⁻¹ s⁻¹. The dissociation constant Kd in assay [7] was < 100 pM.

B13: ATI-966 (designed binder)
chain: MGVSDVPRDLEVVAATPTSLLISWHRFSSIMAYYRITYGETGGNSPVQEFTVAGSVNTATISGLKPGVDYTITVYAVTIHNVSFPISINYRTEIDKPSQHHHHHH
notes: 10Fn3 Adnectin
In the case of B13, in [2], the Kd was determined as 28 pM, the koff is 6.9e-05 s⁻¹ and the kon was 2.5e+06 M⁻¹ s⁻¹. This molecule also registered an EC50 in assay [5] of 28 pM. Binding in the assay with cyno PD-L1 was characterised by a dissociation constant (Kd) of 38 pM.

B14: ATI-1420B09 (designed binder)
chain: MGVSDVPRDLEVVAATPTSLLISWHKFSSLMSYRITYGETGGNSPVQEFTVGSVNATISGLKPGVDYTITVYAIHNVGFISINYRTEIDKPSQHHHHHH
notes: 10Fn3 Adnectin
In [4], B14 showed a Kd of 2500 pM.

B15: ^64Cu-E01-NODAGA (designed binder)
chain: GVSDVPRDLEVVAATPTSLLISWRAQLSPSFYYRITYGETGGNSPVQEFTVPNDVMTATISGLKPGVDYTITVYAVTTHGVYFYSPISINYRTPC
modifications: C-terminal cysteine (of the added PC) linked to maleimide-NODAGA chelating ^64Cu
notes: Modified E01 (ADX_5417_E01 with N leader and C-terminal PC); also called ^64Cu-E01 anti-PD-L1 Adnectin
In the case of B15, in [8], the “fold higher cell associated radioactivity against hPD-L1-negative HT-29 cells” value was found to be 44.6 fold.
